The supplement of paper PMC10567573

B1: WDFY1 (parent)
chain: FWNIKQMWDTKTLGLRQHHCRKCG
B2: MYBL2 (parent)
chain: FSPSQFLNFWNKQDTLELESPSLT

Variants of: B1
Assay: protein stability index of a GFP-peptide fusion (GPS, HEK-293T) (PSI 1-6); higher = more stable
Settings: c terminus: a fixed tail appended
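Further: lentivirally expressed fusions sorted by FACS into six bins by GFP to DsRed ratio, PSI derived from sequencing read proportions per bin multiplied by bin number.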

Protein stability index, by site and new letter:
F1: D 2.79; K 2.45; T 2.28; P 2.29; N 2.76; G 2.3; W 2.16; A 2.11; E 2.61; C 2.65; R 1.54; V 1.97; H 2.36; M 2.98; Q 2.31; I 1.91; L 1.62; S 2.46

Variants of: B2
Assay: as above
Settings: c terminus: a fixed tail appended

Protein stability index, by site and new letter:
D14: S 1.31; C 4.04; G 2.94; K 4.25; A 2.94; L 2.6; M 2.63; Q 2.89; H 2.39; R 4.08; V 3.22; F 3.92; Y 3.5; P 2.98
S22: T 2.82; Y 2.61; F 3.27; K 3.1; H 2.56; I 2.72; N 3.17; V 2.95; W 3; P 1.89; C 4.69
F6: E 4; C 1.61; H 2.6; R 3.66; K 2.86; P 3; W 2.7; A 2.02; S 2.31; Q 3.08; V 2.39; T 1.5; L 4.19; D 2.59; N 2.21
P21: N 3.41; G 3.5; L 3.37; C 2.77; V 2.53; M 3.16; D 2.2; F 3.56; I 3.74; Q 2.56; Y 2.69; W 3.86; R 2.36; E 2.64; K 3.01; S 2.09; T 2.36
W10: Y 2.63; I 2.28; D 3.87; T 2.98; K 2.8; E 3.51; G 2.93; F 2.18; C 2.5; N 3.38; V 1.89; Q 3.5; A 2.48; P 3.45; L 2.06; M 2.17; H 2.77; R 2.62; S 2.91
S20: K 2.35; E 1.23; L 1.89; I 2.75; Q 3.9; G 2.84; C 2.08; V 2.31; F 2.57; D 2.62; T 2.83; P 1.65; M 3.66; W 2.37; R 2.26
L7: K 2.97; F 2.6; A 3.29; V 3.57; T 3.42; N 3.1; Y 2.76; W 2.38; H 3.34; M 3.04; R 2.38; I 3.39; Q 2.92; C 3.24; G 2.59; P 2.25
N11: T 2.79; C 4.67; F 2.14; Q 2.77; L 3.89; Y 3.26; S 2.99; D 3.14; I 2.5; G 2.56; P 2.51; R 2.48; A 1.4; E 2.73
T24: L 2.52; K 3.62; E 2.34; S 2.36; W 2.86; N 2.1; A 3.17; C 3.38; Y 2.73; P 3.08; R 3.41; M 2.65; I 2.2
Q13: P 2.06; I 4.44; Y 3.56; R 1.21; A 3.54; W 3.25; H 3.41; V 2.94; M 3.43; D 3.51; N 3.24; F 2.17; T 2.4; S 3.98
L23: R 2.97; G 2.27; E 2.26; A 2.08; N 2.65; S 2.13; C 2.71; M 2.41; I 4.19; D 3.49; H 2.79; F 3.38; V 2.91
S4: W 2.35; V 2.57; Y 2.98
F9: P 2.48; V 3.09; A 1.87; R 2.13; H 2.43; C 2.17; G 1.6; K 2.44; N 2.29; D 2.98; S 1.83; L 2.98; Q 2.15; Y 1.74; E 2.43; W 2.84; T 1.96; I 3.65; M 1.63
E17: T 2.41; P 1.74; W 2.71; I 3.94; A 1.07; K 2.48; D 3.02; C 2.41; H 2.37; F 1.84; S 3.58; L 3.9; Y 2.41; N 2.33; R 2.45; M 3.58; V 3.59; Q 3.02
N8: P 2.91; M 3.6; T 3.92; W 2.9; L 3.22; K 2.74; I 4.12; F 4.01; S 3.58; A 3.07; D 2.08; Y 2.06; R 2.93; Q 2.17; V 3.44
E19: G 1.66; I 2.94; N 3.12; C 3.63; Y 2.11; R 2.75; D 3.09; P 2.86; H 2.88; V 2.8; L 4.26; S 2.07; T 2.39; A 2.63; F 2.58; W 2.64
L18: N 1.98; C 2.55; I 2.61; M 2.88; W 5.25; E 3.1; Y 3.16; Q 3.72; V 3.28; R 2.95; D 2.79; T 3.04; G 2.58; K 2.98; P 2.1; H 1.77; F 3.19; S 1.84
K12: H 2.4; I 3.21; A 2.9; E 2.25; Y 3.78; R 2.52; G 4.46; T 2.59; N 2.84; M 3.42; S 2.02; F 2.97; V 4.37; P 3.55; Q 1.93; D 3.15
Q5: Y 2.29; K 2.44; T 3.6; W 2.86; G 3.07; S 2.83; N 2.27; P 3.49; C 3.02; A 2.55; R 2.6; D 2.75; H 2.79; F 2.31; M 2.95
T15: C 2.54; W 3.33; G 3.51; D 2.09; R 2.54; Q 1.82; Y 1.38; P 2.48; H 3.8; S 4.29; F 2.34; I 2.92; K 2.68; M 3.12; A 3.05; N 3; L 3.22; E 2.4
L16: S 2.5; V 2.19; A 3.1; C 2.68; R 4.02; T 1.5; H 3.68; M 2.56; K 2.75; Q 3.33; Y 3.49; I 2.58; E 1.26; D 3.85; P 2.29; F 3.19; G 4.14
